“Also recorded” adds a separate entry of the source.
Legend:
[1] = general knowledge stated in the patent; cited from earlier work
[2] = Blood-brain barrier permeability of the nucleic acid complex in a mouse model (cy3 fluorescence in brain tissue, confocal microscopy); format: in vivo; settings: ICR mice, 20 mg/kg caudal vein; for distribution of fluorescence expression among brain regions: 20 mg/kg
Experimental: In order to confirm the blood-brain barrier permeability of the nucleic acid complex, 6-week-old male ICR mice (OrientBio, Korea) were purchased and acclimatized for a week, after which 20 mg/kg (n=6) of the nucleic acid complex was administered to the caudal veins thereof. In a positive control group (n=6), fluorescent-material-labeled methotrexate was administered to the caudal veins, and in a negative control group (n=6), DMSO at the same concentration as in the experimental group was diluted with saline and administered via the same route.
The mouse model was anesthetized by intraperitoneal administration of Avertin (5 mg/kg), followed by washing and fixing of the brain tissue through perfusion with saline and 4% paraformaldehyde. The fixed brain tissue was separated and dehydrated by placing the same in 30% sugar water for 24 hours, after which an embedding process was performed using OCT. The entire region of the brain tissue was cryosectioned into 30 μm sections. In order to observe the entire brain tissue from the cerebral cortex to the brainstem, the tissues were broadly separated into a total of six regions, namely the prefrontal cortex, lateral ventricle, paraventricular nucleus, hippocampus, midbrain, and cerebellum, and mounted on slide glasses, and the nuclei were stained with DAPI for 15 minutes and then analyzed using a confocal microscope.
Therefore, in order to determine whether the administered material spreads through the present system, the brain tissue was classified into six major regions from the front to the back and analyzed. In addition, in order to observe the extent of spreading over time, the groups were separately observed on day 1 and day 3, and the numerical values thereof were analyzed.
Then, for all experimental groups to which the nucleic acid complex was administered, the distribution of fluorescence in tissues depending on the administration date was numerically analyzed, and the distribution of fluorescence expression in each tissue of the brain after administration of the nucleic acid complex was compared.

Row | Molecule | blood-brain barrier crossing (known) [1] | bioavailability (known) [1] | fluorescence expression by cy3 in brain tissue (confocal microscopy) ([2]; FIG. 1, versus group given only methotrexate) | fluorescence expression, day 3 versus day 1 ([2]; all brain tissue regions) | distribution of fluorescence expression among brain regions ([2]; day 1) | distribution of fluorescence expression among brain regions ([2]; day 3)
1 | O=C(O)CCCc1ccc(N(CCCl)CCCl)cc1 [Chlorambucil] | incapable of crossing the blood-brain barrier | – | – | – | – | –
2 | CN(Cc1cnc2nc(N)nc(N)c2n1)c1ccc(C(=O)N[C@@H](CCC(=O)O)C(=O)O)cc1 [Methotrexate] | known to cross the blood-brain barrier | very low bioavailability | – | – | – | –
3 | POLIGO ™_1 (chain 1 ATGATTCTGCCCTCC; chain 2 TACTAAGACGGGAGG; chemistry not given here; one strand is listed 3' to 5') | – | – | high fluorescence expression compared to the group administered only with methotrexate | higher on day 3 than on day 1 in all brain tissue regions | higher in the midbrain and cerebellum; also recorded: high in the midbrain and cerebellum | the fluorescence spread to the prefrontal cortex; also recorded: high even in the prefrontal cortex
